Two molecules from PMC8322156, “Nuclear condensates of p300 formed though the structured catalytic core can act as a storage pool of p300 with reduced HAT activity” (Nature Communications, 2021) can be followed below.

Data set [1] deals with p300 BRPHZ, SIRT2-deacetylated (~4 Kac, outside the AIL) (human). The data set can be described thus: EMSA. The following applies: EMSA: 20 mM Tris-HCl pH 7.5, 50 mM NaCl (75 mM for NCP), 2 mM DTT, 5 min; 5% PAGE in 0.2x TBE (DNA) or 0.2x TB (NCP), 100 V, on ice; SYBR Gold. In general terms: A gel shift assay detects complexes by their altered migration in electrophoresis.
Data set [2] addresses T1, SIRT2-treated p300_(BRPHZ) (catalytic core BD-RING-PHD-HAT-ZZ, aa 1035-1720 of p300), hypoacetylated (human, UniProt Q09472 1035-1720, on average 4 acetyl-lysines outside the AIL left after SIRT2 treatment (sites not given)).
T1 construct: human p300, BD-RING-PHD-HAT-ZZ region (BRPHZ), amino acids 1035-1720; Heterogeneously acetylated; Vector pGEX-6P-1; also called SIRT2-deacetylated p300BRPHZ; deacetylated p300
T1 sequence (looked up): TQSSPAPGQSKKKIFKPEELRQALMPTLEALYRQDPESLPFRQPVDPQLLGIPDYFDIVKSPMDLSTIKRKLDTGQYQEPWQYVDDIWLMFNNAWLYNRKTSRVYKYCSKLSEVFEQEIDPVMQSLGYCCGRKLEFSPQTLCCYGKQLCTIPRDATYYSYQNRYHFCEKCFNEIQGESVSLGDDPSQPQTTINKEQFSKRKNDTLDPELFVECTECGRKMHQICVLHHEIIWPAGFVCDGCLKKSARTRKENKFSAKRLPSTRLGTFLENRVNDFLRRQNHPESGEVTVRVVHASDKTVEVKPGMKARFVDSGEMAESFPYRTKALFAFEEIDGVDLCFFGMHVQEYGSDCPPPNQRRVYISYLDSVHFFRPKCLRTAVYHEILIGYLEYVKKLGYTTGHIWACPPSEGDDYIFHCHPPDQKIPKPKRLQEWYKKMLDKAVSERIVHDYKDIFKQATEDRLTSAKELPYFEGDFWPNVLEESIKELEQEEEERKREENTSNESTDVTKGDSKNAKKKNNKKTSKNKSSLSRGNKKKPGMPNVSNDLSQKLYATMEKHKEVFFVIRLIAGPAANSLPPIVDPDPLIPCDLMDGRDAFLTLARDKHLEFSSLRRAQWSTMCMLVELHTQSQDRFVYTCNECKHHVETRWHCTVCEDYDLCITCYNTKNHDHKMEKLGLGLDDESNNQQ
Kind of data set: recruitment of a labelled peptide into condensates (confocal microscopy); 13 uM SIRT2-treated p300 condensates (PEG-induced) mixed with 6 uM FAM-labeled H3 tail (aa 1-12); FAM alone as control. Particulars: both partners purified.

No end group written: not given here.

The Kd is the constant that tells how readily two partners part at equilibrium.

In data set [1], 601 DNA 147 bp returned a Kd of 0.3 µM.

B1: fluorescein (FAM)-labeled histone H3 tail peptide (residues 1-12 of H3) (peptide, UniProt P68431 2-13, looked up)
peptide: ARTKQTARKSTG
modifications: also: fluorescein (FAM) label, position not given here
notes: histone H3 tail, residues 1-12, unmodified; also called FAM-H3; FAM-labeled H3_(1-12) peptide
As to B1, the binding result in data set [2] was “binds”.
